For one data set, the target named is T1, hEndoU H285A/R385A (Homo sapiens, UniProt P21128 135-410, H285A;R385A).
T1 sequence: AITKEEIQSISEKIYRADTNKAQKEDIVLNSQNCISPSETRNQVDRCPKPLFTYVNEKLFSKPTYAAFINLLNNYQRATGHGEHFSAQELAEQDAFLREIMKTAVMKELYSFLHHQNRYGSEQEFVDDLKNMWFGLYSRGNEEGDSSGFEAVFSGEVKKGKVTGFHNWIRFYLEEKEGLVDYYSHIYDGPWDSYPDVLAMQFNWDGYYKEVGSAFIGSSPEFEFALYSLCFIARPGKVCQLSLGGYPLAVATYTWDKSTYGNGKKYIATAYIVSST
Briefly: EMSA. A general note: Mobility shift assays separate free from complexed probe on a gel.

The next data set deals with T2, hEndoU E284A (Homo sapiens, UniProt P21128 135-410, E284A).
T2 sequence: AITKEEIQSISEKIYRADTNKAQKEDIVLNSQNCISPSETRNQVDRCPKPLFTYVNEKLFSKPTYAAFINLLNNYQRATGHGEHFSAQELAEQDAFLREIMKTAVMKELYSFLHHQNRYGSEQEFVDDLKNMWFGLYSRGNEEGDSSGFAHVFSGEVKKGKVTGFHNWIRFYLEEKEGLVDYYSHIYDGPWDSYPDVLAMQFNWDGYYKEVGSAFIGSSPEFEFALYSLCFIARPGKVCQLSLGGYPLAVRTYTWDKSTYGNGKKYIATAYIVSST
Briefly: EMSA.

The next data set concerns the target T3, hEndoU H285A (Homo sapiens, UniProt P21128 135-410, H285A).
T3 sequence: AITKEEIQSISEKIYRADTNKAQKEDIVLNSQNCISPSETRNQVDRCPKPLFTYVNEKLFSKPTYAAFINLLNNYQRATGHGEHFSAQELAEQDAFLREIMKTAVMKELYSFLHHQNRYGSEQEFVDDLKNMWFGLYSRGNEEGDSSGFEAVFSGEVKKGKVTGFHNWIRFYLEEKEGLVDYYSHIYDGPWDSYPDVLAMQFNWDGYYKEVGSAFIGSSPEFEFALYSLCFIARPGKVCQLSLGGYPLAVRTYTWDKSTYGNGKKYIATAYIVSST
Briefly: EMSA.

The target in another data set is T4, hEndoU H285A/R385K (Homo sapiens, UniProt P21128 135-410, H285A;R385K).
T4 sequence: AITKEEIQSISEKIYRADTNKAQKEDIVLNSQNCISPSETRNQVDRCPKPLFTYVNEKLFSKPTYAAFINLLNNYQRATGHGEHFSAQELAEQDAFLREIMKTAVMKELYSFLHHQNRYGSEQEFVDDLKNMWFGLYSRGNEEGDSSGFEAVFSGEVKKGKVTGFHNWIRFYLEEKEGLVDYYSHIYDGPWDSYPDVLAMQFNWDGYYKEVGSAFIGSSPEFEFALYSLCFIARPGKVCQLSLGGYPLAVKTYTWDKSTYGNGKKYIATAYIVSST
Briefly: EMSA.

Data set [1] deals with T5, hEndoU WT (Homo sapiens, UniProt P21128 135-410).
T5 sequence: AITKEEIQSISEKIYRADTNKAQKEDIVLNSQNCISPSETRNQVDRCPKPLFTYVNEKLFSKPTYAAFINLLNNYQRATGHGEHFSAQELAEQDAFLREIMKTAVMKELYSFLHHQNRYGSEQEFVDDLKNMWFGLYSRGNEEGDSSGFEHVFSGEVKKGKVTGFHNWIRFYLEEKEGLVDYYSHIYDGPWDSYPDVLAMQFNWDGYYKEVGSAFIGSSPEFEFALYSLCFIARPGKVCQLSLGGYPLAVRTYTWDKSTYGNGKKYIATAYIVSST
Briefly: NMR.

Data set [2] has as its target T5, hEndoU WT. Briefly: NMR. This is another data set of the same source.

Read-outs that look alike come from different tables or passages of the source.

For CACGAGUACCAGAAAACCAAAA (ssRNA) [single-uridylate RNA], the binding result with hEndoU H285A/R385A, in the data set with hEndoU E284A, in the data set with hEndoU H285A and in the data set with hEndoU H285A/R385K was “binds” throughout.
Take AAGUCC (XNA, 2'-F at all nucleotides) [2'-F RNA AAGUCC]: in the data set with hEndoU WT [1], the binding result is “binds”.
UUUUUU (XNA, 2'-F at all nucleotides) [2'-F (U)6]: the binding result with hEndoU WT [2] was “binds”.
